Legend:
Peptide-2 [1] = molecular target: T1, Peptide-2 (human, phosphothreonine 212, phosphothreonine 217 (tau 2N4R numbering); short chain biotin (SCBiot) and dPEG4 at the N-terminus; amide at the C-terminus); assay: SPR ProteOn, peptide captured, Fab as analyte
T1 construct: also called pT212/pT217-tau peptide (Peptide-2)
Experimental: (§1) A subset of HFA-PT3 monoclonal antibody variants, selected based on biophysical characterization and ELISA binding to PHF, were analyzed by Surface Plasmon Resonance (SPR) with a ProteOn XPR36 for binding to the following phosphopeptides: pT212/pT217-tau peptide (Peptide-2, SEQ ID NO: 48) and pT212-tau peptide (Peptide-8, SEQ ID NO: 54). All experiments were performed at 25° C. using PBST, pH 7.4, (Bio-Rad Cat#176-2720) as both running buffer and sample dilution buffer.
(§2) Fab/peptide binding. Biotinylated peptide was captured on a neutravidin-coated NLC biosensor chip pre-conditioned with PBST, and Fab was flowed over the surface to measure kinetic parameters. Approximately 5-10 RU of peptide was captured on the chip surface by diluting peptide to 10 ng/mL in PBST and injecting over the flow channels at 30 μL/min for 100 s. Serial dilutions of PT3 Fab (1.1 nM to 90 nM) were injected at 60 μL/min for 3 minutes (association phase), followed by 300 s of buffer only (dissociation phase).
(§3) Data were double referenced by subtraction of the interspot response, and the curves generated by the buffer only injection. The chip surface was regenerated with 0.85% phosphoric acid, followed by PBST injection before the next antibody titration injection. Data processing and analysis were performed using instrument software. The data were fit using a simple Langmuir 1:1 binding model.

Peptide-2 [2] = molecular target: T1, Peptide-2; assay: SPR ProteOn, peptide captured, Fab as analyte; range of n=2; Peptide-2 (pT212/pT217); Table 12 run; upper end of n=2 range
Experimental: as §1, §2, §3

Peptide-4 = Peptide-4 (human, phosphoserine 210, phosphothreonine 217 (tau 2N4R numbering); SCBiot and dPEG4 at the N-terminus; amide at the C-terminus); assay: SPR ProteOn, peptide captured, Fab as analyte; range of n=2; upper end of n=2 range
Chain of Peptide-4 (human, phosphoserine 210, phosphothreonine 217 (tau 2N4R numbering); SCBiot and dPEG4 at the N-terminus; amide at the C-terminus) (peptide, as listed by the source): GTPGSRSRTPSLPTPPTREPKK
Experimental: (§4) The binding affinity of PT3 Fab towards each of the fourteen tau phosphopeptides shown in Table 6 was assessed by surface plasmon resonance (SPR) using a Bio-Rad ProteOn XPR36. Peptides were synthesized by standard chemical methods (New England Peptide) with short-chain biotin and a PEG4 moiety at the N-terminus. Biotinylated peptide was captured on a neutravidin-coated NLC biosensor chip and PT3 Fab was flowed over the surface to measure kinetic parameters.
(§5) All experiments were performed at 25° C. using phosphate buffered saline, pH 7.4, 0.005% Tween 20 (PBST) as both running buffer and sample dilution buffer. Prior to running samples, the NLC chip was conditioned by running PBST over the chip surface for 1 h. Approximately 5-10 RU of peptide was captured on the chip surface by diluting peptide to 10 ng/mL in PBST and injecting over the flow channels at 30 μL/min for 100 s. Serial dilutions of PT3 Fab (1.1-90 nM) were analyzed and, with the exception of Peptide-8, each concentration was measured in duplicate. After capture of peptides, the antibody titration was injected at 60 μL/min for 3 minutes (association phase), followed by 300 s of buffer only (dissociation phase).
(§6) The data were double referenced by subtraction of the interspot response and the curves generated by the buffer-only injection. The chip surface was regenerated using a single injection of 0.85% phosphoric acid at 30 μL/min for 100 s contact time, followed by four injections of running buffer before the next antibody titration injection. The data processing and kinetic analysis were done using the instrument software. The data were analyzed using a simple Langmuir 1:1 binding model.

Peptide-7 [3] = molecular target: T2, Peptide-7 (human, phosphothreonine 212, phosphoserine 214 (tau 2N4R numbering); SCBiot and dPEG4 at the N-terminus; amide at the C-terminus); assay: as above
Experimental: as §4, §5, §6

Peptide-6 = Peptide-6 (human, phosphothreonine 217 (tau 2N4R numbering); SCBiot and dPEG4 at the N-terminus; amide at the C-terminus); assay: as above
Experimental: as §4, §5, §6

Peptide-2 [4] = molecular target: T1, Peptide-2; assay: as above
Experimental: as §4, §5, §6

Peptide-2 [5] = molecular target: T1, Peptide-2; assay: SPR ProteOn, peptide captured, Fab as analyte; Peptide-2 (pT212/pT217); peptide mapping run of Table 6, n=2
Experimental: as §4, §5
(§7) The data were double referenced by subtraction of the interspot response and the curves generated by the buffer-only injection. […] The data were analyzed using a simple Langmuir 1:1 binding model.

Peptide-3 = Peptide-3 (human, phosphoserine 214, phosphothreonine 217 (tau 2N4R numbering); SCBiot and dPEG4 at the N-terminus; amide at the C-terminus); assay: SPR ProteOn, peptide captured, Fab as analyte; Peptide-3, phosphorylated at 214/217; n=3
Experimental: as §4, §5, §7

Peptide-7 [6] = molecular target: T2, Peptide-7; assay: SPR ProteOn, peptide captured, Fab as analyte; range of n=2; Peptide-7 (pT212/pS214); lower end of n=2 range
Experimental: as §4, §5, §7

Peptide-2 [7] = molecular target: T1, Peptide-2; assay: SPR ProteOn, peptide captured, Fab as analyte; range of n=2; Peptide-2 (pT212/pT217); Table 12 run; lower end of n=2 range
Experimental: as §1, §2, §3

Peptide-2 [8] = molecular target: T1, Peptide-2; assay: SPR ProteOn, peptide captured, Fab as analyte; range of n=2; Peptide-2 (pT212/pT217); Table 6 run; lower end of n=2 range

koff (Peptide-2 [1]): 6.39e-05 s⁻¹ | kon (Peptide-2 [1]): 776000 M⁻¹ s⁻¹ | Kd (Peptide-2 [2]): 0.0738 to 0.101 nM | koff (Peptide-4): 0.00627 s⁻¹ | kon (Peptide-4): 968000 M⁻¹ s⁻¹ | koff (Peptide-7 [3]): 0.0056 s⁻¹ | kon (Peptide-7 [3]): 487000 M⁻¹ s⁻¹ | koff (Peptide-6): 0.00625 s⁻¹ | kon (Peptide-6): 558000 M⁻¹ s⁻¹ | koff (Peptide-2 [4]): 0.000245 s⁻¹ | kon (Peptide-2 [4]): 982000 M⁻¹ s⁻¹ | Kd (Peptide-2 [5]): 0.27 nM | Kd (Peptide-3): 5.57 nM | Kd (Peptide-7 [6]): 11.3 to 15.7 nM | Kd (Peptide-2 [7]): 0.0738 to 0.101 nM | Kd (Peptide-2 [8]): 0.09 to 0.45 nM
B1: PT3 Fab (B187) (Fab, V domains shown)
VH: EVKLVESGGDLVKPGGSLKLSCAASGFTFSSYAMSWVRQNPEKRLEWVASISKGGNTYYPNSVKGRFTISRDNARNILYLQMSSLRSEDTALYYCARGWGDYGWFAYWGQVTLVTVSA
VL: DIKMTQSPSSMYASLGERVTITCKASQDINRYLNWFQQKPGKSPKTLIYRANRLLDGVPSRFSGSGSGQDYSLTISSLDYEDMGIYYCLQYDEFPLTFGDGTKLELK
notes: Chimeric Fab: mouse variable regions, human IgG1/kappa constant region, 6xHis tag at the C-terminus of the heavy chain; also called mouse parental Fab of PT3
